According to the RNAGym collection of RNA variant scans (doi:10.7554/elife.90254):

B1: LINE1-mini (parent)
chain: GGCAGAGCUCAACACAGCGUGGCAAAGUGGCUGUGGCUAGACUGCC

Variants of: B1
Experiment: self-cleavage, relative activity (ratio to wild type); higher = more cleavage; in vitro, sequencing; the parent is a self-cleaving ribozyme

Point of comparison: G2U G19U, self-cleavage 0.05. Against it:
- G17C C46A — higher, 0.64
- G19C U28G — higher, 0.37
- G2U C37U — the same, 0.05
- C13A G35A — higher, 0.15
- A4C U38A — higher, 0.12
- A16C G40U — lower, 0.03
- G7A C18A — higher, 0.07
- A14C C45A — higher, 0.08
- G2U U20G — the same, 0.05
- A6C A14C — higher, 0.13
- A4C C15A — higher, 0.1
- C23G G44C — higher, 0.2
- A6C C46A — higher, 0.5
- G27A U34C — higher, 0.13
- A4G G33C — higher, 0.07
- A24G U43A — higher, 0.11
- C10A G36U — lower, 0.04
- A26G U43C — the same, 0.05
- G21A C45A — higher, 0.97
- A24G G36U — higher, 0.1
- G19U G33A — higher, 0.18
- C10G A12G — lower, 0.03
- G30C C42U — higher, 0.18
- G30A A41C — higher, 0.07
- A14G C18A — higher, 0.2
- A6G C18U — higher, 0.08
- A11G C45A — lower, 0.03
- G7U A16U — higher, 0.12
- A25C G27U — higher, 0.46
- C15G C46A — higher, 0.11
- G21C A26U — higher, 1.57
- G21U A41G — higher, 0.28
- G29C C42G — lower, 0.02
- A11G A16C — lower, 0.02
- G21C G36U — lower, 0.03
- A12U U28G — higher, 0.12
- C42A C46U — higher, 0.19
- G2U C31U — lower, 0.02
- A26G U28C — higher, 1.18
- C13U G33C — higher, 0.06
- C18U G40U — higher, 0.12
- C23G G40U — higher, 0.14
- C10A G33A — lower, 0.04
- A4U G33C — higher, 0.09
- A14U U38C — higher, 0.17
- G21A G36U — higher, 0.15
- A16C G40C — lower, 0.03
- C37U G44A — higher, 0.1
- G21A G22A — higher, 1.3
- A12G U20G — lower, 0.02
- U32A A39G — the same, 0.05
- G27A C45U — higher, 1.88
- U9G A12G — lower, 0.02
- A41U U43A — higher, 0.17
- A12U U34A — lower, 0.03
- G40U C42G — higher, 0.08
- G5C A16C — higher, 0.07
- C31G C37G — lower, 0.04
- A14C U43C — lower, 0.04
- G17C G22U — higher, 1.51
- G17U G40U — higher, 0.06
- G7U A41U — higher, 0.21
- A4G A11G — higher, 0.12
- A25C G44C — higher, 0.23
- G27U G35U — higher, 0.24
- U20A G30C — higher, 0.68
- G7A G19A — higher, 0.26
- C10A A26C — lower, 0.04
- G19C U28A — higher, 1.2
- G35U G36C — higher, 0.11
- C42G C45U — the same, 0.05
- G30A A41U — higher, 0.6
- G1C G17U — lower, 0.02
- G5A C37A — higher, 0.06
- G22C G36C — higher, 0.25
- G19A C37A — higher, 0.07
- G7U G36U — the same, 0.05
- C10U U34A — higher, 0.14
- C31A G44A — higher, 0.06
- C23A G30A — higher, 1.34
- G21U G36A — higher, 0.27
- A12C A24C — lower, 0.01
- C10G A11G — lower, 0.03
- A24G U28C — higher, 0.72
- G2C C3A — higher, 0.42
- G21U G44A — higher, 0.53
- G2C C37U — higher, 0.06
- A26U G29C — higher, 0.35
- U20A A41G — higher, 0.36
- G30C U32G — higher, 0.3
- A4U A12C — lower, 0.03
- U20G G29A — higher, 1.02
- G22C C37U — lower, 0.02
- A4G C15A — higher, 0.08
- G2C G36U — higher, 0.1
- G27C G30U — higher, 1.72
- C10A G27U — higher, 0.06
- C8U U28A — higher, 0.19
- G2C C23U — higher, 0.16
- A6C U28C — higher, 0.36
- G40C A41C — higher, 0.09
- G2C C23A — higher, 0.08
- G7C A12U — higher, 0.07
- C31A U43C — the same, 0.05
- G30U G35U — higher, 0.08
- G21C G27A — higher, 0.84
- A6U U38A — higher, 0.23
- A6U G30U — higher, 1.27
- G44U — higher, 0.32
- G2U A41U — higher, 0.08
- A14C C37G — higher, 0.11
- A12G G17U — the same, 0.05
- A14G G35U — higher, 0.15
- U38G — lower, 0.03
- C15A G19U — higher, 0.09
- A14G A16C — higher, 0.08
- U20A C45A — higher, 0.77
- A4C G44U — higher, 0.13
- U28C U32G — higher, 0.3
- U34G G40A — lower, 0.03
- C23A U34G — higher, 0.22
- C3A G35A — higher, 0.35
- C3U A4U — higher, 0.15
- G30U U32G — higher, 0.08
- A26G G33A — higher, 0.09
- A6G G19C — the same, 0.05
- A12G C46U — lower, 0.03
- A6C G35U — higher, 0.09
- A24G G29C — higher, 0.48
- A16C G17A — higher, 0.07
- G33A C37G — lower, 0.04
- C37A U43G — higher, 0.08
- U20C U32G — lower, 0.04
- A11U U38C — the same, 0.05
- C31U A41U — higher, 0.16
- A4C G35A — higher, 0.17
- C3U U43C — higher, 0.09
- A14U G44A — higher, 0.13
- C8U C42A — higher, 0.11
- C10U A25G — higher, 0.39
- A4C G21U — higher, 0.21
- G44A C45U — higher, 0.1
- U20G C31A — higher, 0.07
- G2C A14C — higher, 0.06
- A12G G19C — lower, 0.02
- G2A A16U — higher, 0.33
- G1A C10A — higher, 0.12
- G22C U38C — higher, 0.68
- A4U G27C — higher, 0.17
- A14G A16G — higher, 0.1
- G1U C37A — higher, 0.06
- A25U C42G — higher, 0.06
- A16U U28G — higher, 0.22
- G30U A39U — higher, 0.87
- U28A A41C — lower, 0.03
- U9C G40C — lower, 0.03
- C37G U43A — higher, 0.07
- A14G A26G — higher, 0.43
- A16G A41C — higher, 0.11
- G2C U28A — higher, 0.23
- G30U G36A — higher, 0.19
- U38C G44C — higher, 0.32
- G22U U28A — higher, 0.58
- U34G G35A — higher, 0.06
- U28A G40U — higher, 0.12
- A12U G30C — higher, 0.46
